US20260092918A1

Target: H2-K (b) OVA 257-264 SIINFEKL peptide-MHC (mouse) (UniProt P01901)
Experiment: cell-based or functional assay

UniProt P01901, sequence (P01901 22-305 limits assumed): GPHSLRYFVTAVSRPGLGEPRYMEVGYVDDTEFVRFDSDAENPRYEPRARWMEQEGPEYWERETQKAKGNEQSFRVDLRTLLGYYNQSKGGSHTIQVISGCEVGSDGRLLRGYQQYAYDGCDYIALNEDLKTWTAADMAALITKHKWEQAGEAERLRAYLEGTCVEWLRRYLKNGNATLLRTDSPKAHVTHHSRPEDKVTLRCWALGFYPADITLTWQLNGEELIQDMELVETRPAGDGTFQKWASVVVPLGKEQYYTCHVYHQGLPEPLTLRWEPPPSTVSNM

Which results are given for OT-1 TCR on OT-1 T-cells?
TCR tension signal, OT1 T-cells cultured in ACM relative to UCM (decrease): 37 % decrease; TCR tension signal, OT1 T-cells cultured in SCM relative to UCM (increase): 1240 % increase
